Results from the supplement of paper PMC9112550, “Optimization of the antimicrobial peptide Bac7 by deep mutational scanning” (BMC Biology, 2022).

System: Escherichia coli TOP10
Experiment: shrunken log2 fold change of peptide-encoding DNA abundance (4.5 h post-induction vs induction); higher = less antimicrobial activity (less host growth inhibition)
Settings: time post-induction: 4.5 h; library: site-saturation at positions 5, 18, 19, 20
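Also: peptides expressed intracellularly from a pBAD plasmid library in pooled LB shake-flask culture, induced with 0.3% L-arabinose, DNA abundance read by NGS, three biological replicates, DESeq2 with apeglm shrinkage.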

Sequence | shrunken log2 fold change
RRIRWRPPRLPRPRPRPIFEPRP | 0.308
RRIRYRPPRLPRPRPRPKREPRP | 0.0201
RRIRPRPPRLPRPRPRPDFEPRP | -0.235
RRIRVRPPRLPRPRPRPKTCPRP | 0.021
RRIRLRPPRLPRPRPRPWIRPRP | -0.0231
RRIRLRPPRLPRPRPRPFQEPRP | -0.274
RRIRLRPPRLPRPRPRPRARPRP | 0.619
RRIRCRPPRLPRPRPRPEIHPRP | -0.217
RRIRHRPPRLPRPRPRPMYVPRP | 0.0136
RRIRSRPPRLPRPRPRPILDPRP | -0.152
RRIRRRPPRLPRPRPRPCFQPRP | -0.0758
RRIRNRPPRLPRPRPRPQRVPRP | 0.399
RRIRERPPRLPRPRPRPMMWPRP | 0.3
RRIRKRPPRLPRPRPRPLIIPRP | -0.501
RRIRTRPPRLPRPRPRPGVWPRP | 0.631
RRIRERPPRLPRPRPRPVEVPRP | -0.209
RRIRKRPPRLPRPRPRPDDEPRP | 0.143
RRIRVRPPRLPRPRPRPQNFPRP | -0.0453
RRIRRRPPRLPRPRPRPIFSPRP | 1.06
RRIRDRPPRLPRPRPRPAAIPRP | 0.272
RRIRDRPPRLPRPRPRPKGTPRP | -0.0298
RRIRRRPPRLPRPRPRPDETPRP | 0.745
RRIRKRPPRLPRPRPRPMCMPRP | -0.169
RRIRNRPPRLPRPRPRPFQAPRP | -0.0439
RRIRGRPPRLPRPRPRPMETPRP | 0.00487

Sequence | shrunken log2 fold change
RRIRDRPPRLPRPRPRPFIIPRP | -0.348
RRIRSRPPRLPRPRPRPFVPPRP | -0.27
RRIRERPPRLPRPRPRPKADPRP | -0.0439
RRIRNRPPRLPRPRPRPARQPRP | 0.304
RRIRARPPRLPRPRPRPMKDPRP | 0.0565
RRIRLRPPRLPRPRPRPCPCPRP | -0.0536
RRIRFRPPRLPRPRPRPCLQPRP | 0.0975
RRIRPRPPRLPRPRPRPICLPRP | 2.37
RRIRNRPPRLPRPRPRPSTPPRP | -0.103
RRIRLRPPRLPRPRPRPTCQPRP | 0.0421
RRIRARPPRLPRPRPRPNIRPRP | -0.289
RRIRYRPPRLPRPRPRPYGAPRP | -0.202
RRIRVRPPRLPRPRPRPTFSPRP | -0.3
RRIRSRPPRLPRPRPRPFVYPRP | -0.368
RRIRQRPPRLPRPRPRPNLYPRP | -0.647
RRIRQRPPRLPRPRPRPTQIPRP | 0.223
RRIRERPPRLPRPRPRPLGYPRP | -0.39
RRIRSRPPRLPRPRPRPMIDPRP | -0.249
RRIRCRPPRLPRPRPRPHIHPRP | -0.759
RRIRGRPPRLPRPRPRPTPPPRP | 1.06
RRIRVRPPRLPRPRPRPNPAPRP | 0.31
RRIRCRPPRLPRPRPRPMENPRP | 0.0267
RRIRWRPPRLPRPRPRPFIYPRP | -0.467
RRIRRRPPRLPRPRPRPSCDPRP | 0.177
RRIRDRPPRLPRPRPRPSFVPRP | -0.0915

Sequence | shrunken log2 fold change
RRIRRRPPRLPRPRPRPWGIPRP | -0.24
RRIRQRPPRLPRPRPRPEVRPRP | 0.0665
RRIRVRPPRLPRPRPRPLACPRP | 0.214
RRIRERPPRLPRPRPRPQVDPRP | -0.211
RRIRVRPPRLPRPRPRPQAGPRP | 0.0465
RRIRQRPPRLPRPRPRPNMYPRP | -0.433
RRIRLRPPRLPRPRPRPAMQPRP | 0.0214
RRIRSRPPRLPRPRPRPDCDPRP | 0.152
RRIRYRPPRLPRPRPRPFNYPRP | 0.0209
RRIRPRPPRLPRPRPRPHQVPRP | 0.341
RRIRYRPPRLPRPRPRPKCEPRP | -0.0192
RRIRMRPPRLPRPRPRPRYIPRP | -0.31
RRIRRRPPRLPRPRPRPYKSPRP | -0.239
RRIRFRPPRLPRPRPRPADHPRP | 0.00851
RRIRARPPRLPRPRPRPKTCPRP | 0.161
RRIRRRPPRLPRPRPRPERFPRP | 0.293
RRIRTRPPRLPRPRPRPHLAPRP | 0.159
RRIRVRPPRLPRPRPRPKPTPRP | 0.707
RRIRCRPPRLPRPRPRPKKGPRP | -0.129
RRIRNRPPRLPRPRPRPLQYPRP | -0.0315
RRIRVRPPRLPRPRPRPSTSPRP | -0.0898
RRIRMRPPRLPRPRPRPPSHPRP | 0.622
RRIRGRPPRLPRPRPRPTHKPRP | 0.854
RRIRFRPPRLPRPRPRPRVRPRP | 0.0771
RRIRPRPPRLPRPRPRPSDPPRP | -0.184

Sequence | shrunken log2 fold change
RRIRRRPPRLPRPRPRPLVVPRP | 0.312
RRIRKRPPRLPRPRPRPWVCPRP | 0.324
RRIRWRPPRLPRPRPRPKVMPRP | -0.207
RRIRNRPPRLPRPRPRPIVHPRP | -0.205
RRIRQRPPRLPRPRPRPDWMPRP | 0.0723
RRIRLRPPRLPRPRPRPNFQPRP | -0.0242
RRIRQRPPRLPRPRPRPTDAPRP | 0.0862
RRIRSRPPRLPRPRPRPLKVPRP | -0.0229
RRIRKRPPRLPRPRPRPTVQPRP | 0.777
RRIRWRPPRLPRPRPRPAHLPRP | 0.15
RRIRLRPPRLPRPRPRPIETPRP | -0.0258
RRIRRRPPRLPRPRPRPSIAPRP | 0.238
RRIRQRPPRLPRPRPRPQTAPRP | -0.000297
RRIRMRPPRLPRPRPRPKEKPRP | 0.0504
RRIRPRPPRLPRPRPRPDGAPRP | 0.159
RRIRRRPPRLPRPRPRPMCCPRP | -0.0111
RRIRDRPPRLPRPRPRPTIHPRP | -0.128
RRIRQRPPRLPRPRPRPFCSPRP | 0.036
RRIRERPPRLPRPRPRPLHMPRP | -0.203
RRIRRRPPRLPRPRPRPDINPRP | -0.243
RRIRFRPPRLPRPRPRPDDIPRP | -0.0253
RRIRGRPPRLPRPRPRPRKNPRP | 0.74
RRIRERPPRLPRPRPRPSAHPRP | 0.131
RRIRTRPPRLPRPRPRPDEFPRP | -0.00523
RRIRPRPPRLPRPRPRPPNQPRP | 0.282

Sequence | shrunken log2 fold change
RRIRVRPPRLPRPRPRPKIQPRP | -0.0896
RRIRFRPPRLPRPRPRPAWWPRP | 0.273
RRIRKRPPRLPRPRPRPCLEPRP | 0.0959
RRIRSRPPRLPRPRPRPQEIPRP | -0.16
RRIRDRPPRLPRPRPRPLWNPRP | 0.0619
RRIRNRPPRLPRPRPRPALWPRP | -0.15
RRIRNRPPRLPRPRPRPPLTPRP | 0.0501
RRIRVRPPRLPRPRPRPNIIPRP | -0.303
RRIRERPPRLPRPRPRPQCMPRP | -0.586
RRIRDRPPRLPRPRPRPWTVPRP | -0.168
RRIRIRPPRLPRPRPRPAINPRP | -0.606
RRIRERPPRLPRPRPRPYSMPRP | -1.48
RRIRERPPRLPRPRPRPFVGPRP | -0.143
RRIRLRPPRLPRPRPRPKLYPRP | 0.0148
RRIRGRPPRLPRPRPRPEYKPRP | 0.375
RRIRPRPPRLPRPRPRPLKFPRP | -0.368
RRIRCRPPRLPRPRPRPWSCPRP | -0.739
RRIRLRPPRLPRPRPRPFEWPRP | -0.151
RRIRARPPRLPRPRPRPYEGPRP | -0.195
RRIRTRPPRLPRPRPRPGWAPRP | 0.622
RRIRARPPRLPRPRPRPGNRPRP | 0.0467
RRIRNRPPRLPRPRPRPHLEPRP | 0.0549
RRIRKRPPRLPRPRPRPRPLPRP | 0.73
RRIRYRPPRLPRPRPRPSMSPRP | -1.19
RRIRTRPPRLPRPRPRPWIAPRP | -0.0119

Sequence | shrunken log2 fold change
RRIRIRPPRLPRPRPRPSKCPRP | -0.788
RRIRSRPPRLPRPRPRPQGFPRP | -0.0809
RRIRKRPPRLPRPRPRPFRHPRP | -0.0849
RRIRNRPPRLPRPRPRPCSRPRP | -0.0877
RRIRRRPPRLPRPRPRPHELPRP | 0.429
RRIRSRPPRLPRPRPRPGVQPRP | -0.0497
RRIRDRPPRLPRPRPRPENSPRP | 0.0647
RRIRHRPPRLPRPRPRPMCNPRP | -0.186
RRIRHRPPRLPRPRPRPNPGPRP | 0.111
RRIRGRPPRLPRPRPRPPGQPRP | 0.976
RRIRPRPPRLPRPRPRPNIAPRP | 0.225
RRIRQRPPRLPRPRPRPKLCPRP | 0.0303
RRIRWRPPRLPRPRPRPAHFPRP | 0.141
RRIRGRPPRLPRPRPRPRAKPRP | 1.22
RRIRRRPPRLPRPRPRPSVNPRP | -0.308
RRIRQRPPRLPRPRPRPVMDPRP | -0.39
RRIRNRPPRLPRPRPRPDCRPRP | -0.119
RRIRNRPPRLPRPRPRPMREPRP | 0.13
RRIRWRPPRLPRPRPRPACHPRP | 0.442
RRIRGRPPRLPRPRPRPKHYPRP | 0.0538
RRIRMRPPRLPRPRPRPPRMPRP | 0.893
RRIRPRPPRLPRPRPRPTTNPRP | 0.199
RRIRSRPPRLPRPRPRPRHFPRP | 0.141
RRIRQRPPRLPRPRPRPEFRPRP | 0.0728
RRIRTRPPRLPRPRPRPQPWPRP | 0.314
